Laboratory results reported in the supplement of paper PMC9732359.
± gives the uncertainty stated by the source.

Assay: protein stability index of a GFP-peptide fusion (yeast GPS) (PSI 1-4); higher = more stable; sorted into four equal gates, so the index is relative within each strain
Settings: doa10∆
Procedure, shortened: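 Sequencing reads from sorted gates were used to score each peptide. The library consisted of tiled 17-residue yeast protein peptides fused downstream of GFP on a Cherry-expressing plasmid, pooled and carried in yeast. Mid-log cultures in leucine-free medium were split into four equal gates by GFP/Cherry ratio, and each gate's plasmids were PCR-amplified and Illumina-sequenced. The protein stability index adds up, over all gates, the read frequency multiplied by the gate number.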

Row | Sequence | protein stability index
1 | LLGARHYTPAVDLWSVG [SSN3] | 1.29 ± 0.19
2 | LLGYTGIPTDKGPRFRK [PRE8] | 2.81 ± 0.18
3 | LLHHVSELDSNDFFIIY [YJL039C/NUP192] | 1.7 ± 0.088
4 | LLKGPASTVAKTAPIQE [YOR098C/NUP1] | 2.52 ± 0.1
5 | LLKLLTRLVQLREFRIT [GRR1] | 1.89 ± 0.053
6 | LLKPFHVKVNDKKEMTI [SIR3] | 3.05 ± 0.18
7 | LLKQYPKDSSSTFREWK [YJR042W/NUP85] | 2.54 ± 0.045
8 | LLMSCPRLSHLSLTAVP [GRR1] | 1.9 ± 0.051
9 | LLNAADRDALSGWGAVV [PUP3] | 3.17 ± 0.12
10 | LLQLKYFSNKTSTGIIR [POP5] | 2.46 ± 0.19
11 | LLRFNGVERLIPVGDNT [PRE4] | 1.58 ± 0.068
12 | LLSDVVSTSSGAAANNN [YJL041W/NSP1] | 3.24 ± 0.077
13 | LLSGEDLTLDDISLKAD [YJL039C/NUP192] | 3.36 ± 0.052
14 | LLSSESNIPTLIEKLQG [YDL116W/NUP84] | 2.42 ± 0.091
15 | LLTPDIGAVYSGMGPDY [PRE8] | 1.32 ± 0.055
16 | LLYADSLTAEAMTAAEH [CYT1] | 2.34 ± 0.056
17 | LMASVILDSLPSVIHSS [YDL116W/NUP84] | 1.76 ± 0.042
18 | LMDDMSDISDLDDLGFL [RPN3] | 1.77 ± 0.062
19 | LMDKCLPKVRIRTRRAA [DIS3] | 1.86 ± 0.06
20 | LMEKNRIRKLTGQNFLT [REC8] | 1.36 ± 0.044
21 | LMLEDTDGDSILYYDVL [BRR2] | 2.85 ± 0.074
22 | LMRELLKMMKLIVDTHV [PRP8] | 1.9 ± 0.083
23 | LMYQIKKECALLISYGV [SRB4] | 1.9 ± 0.12
24 | LNAIILKLEKLNTNRTF [SMC3] | 2.19 ± 0.047
25 | LNAITLDGDRADKRGVL [SMC3] | 2.94 ± 0.15

Row | Sequence | protein stability index
26 | LNAIVSKNSPAEDDVII [YJR042W/NUP85] | 3.44 ± 0.14
27 | LNDEGEPIKVNVRVGQA [RPN1] | 3.13 ± 0.09
28 | LNDENSDDYDNEGAASS [SMC1] | 3.39 ± 0.25
29 | LNDSNVKSFKPHLLKQG [RRP42] | 2.63 ± 0.083
30 | LNEALLQCPMLYVESTG [CSN12] | 1.47 ± 0.088
31 | LNEFFTRELAEEGYSGV [RPS3] | 2.5 ± 0.22
32 | LNEIELDNLKLKELRID [GRR1] | 3.28 ± 0.097
33 | LNINNPNFLIMQGKITK [SMC2] | 3.39 ± 0.26
34 | LNKAGKPFRQTKFKVRG [RPL38] | 2.78 ± 0.12
35 | LNKLYGGAKSRGVRPYK [RPS19A] | 3.34 ± 0.14
36 | LNLINAKLWFYIYLSHE [RPN3] | 1.43 ± 0.059
37 | LNLLNYQELFIQPKNSD [YML103C/NUP188] | 2.57 ± 0.06
38 | LNPQVADINKNFLSVIT [RPN2] | 1.81 ± 0.065
39 | LNRLPAASLGDMVMATV [RPL23A] | 1.6 ± 0.1
40 | LNSLLTYIKSEITQQEK [SMC4] | 2.77 ± 0.066
41 | LNSLSPQAILAKNSIID [SWI1] | 1.79 ± 0.033
42 | LNSMPNNVNEYSYTTIV [YJL039C/NUP192] | 2.69 ± 0.085
43 | LPEIAKEIYTTLGNQML [YJR042W/NUP85] | 2.28 ± 0.086
44 | LPEPTEGFAADDEPTTP [FAS1] | 3 ± 0.095
45 | LPGDMLAVCDELGNMTM [SIN4] | 2.76 ± 0.071
46 | LPGTNNNSNSNNNSSNE [SEC65] | 2.93 ± 0.051
47 | LPLDSQDDEYVKDWLYD [PRP8] | 3.44 ± 0.15
48 | LPLQAQQQLYGGNNNNN [SWI1] | 3.05 ± 0.064
49 | LPNKSTISKTVSSTIPR [FAS2] | 2.01 ± 0.072
50 | LPVASPFHSHLLVPASD [FAS1] | 1.61 ± 0.053

Row | Sequence | protein stability index
51 | LPYNWDALEMQWRYLYD [ARP7] | 2.1 ± 0.065
52 | LQAIQEKLNKTDENTPS [ITC1] | 3.12 ± 0.098
53 | LQDLEEAKSFQDEAELV [RPC82] | 3.5 ± 0.12
54 | LQDLSRYSRQFINNVLS [GRR1] | 2.78 ± 0.059
55 | LQDWQREDEFGSIPSLT [YDL088C/ASM4] | 3.22 ± 0.073
56 | LQGIVIWDSQKFFIMIV [POP4] | 1.7 ± 0.059
57 | LQGVTYPVLRKLYKKIA [YIL149C/MLP2] | 1.94 ± 0.093
58 | LQISDIPAAGNNRSVSM [SRB5] | 2.77 ± 0.075
59 | LQKSSKSMITSEGEQKS [YAR002W/NUP60] | 2.84 ± 0.044
60 | LQLELTIEDIAVAITRA [RPO31] | 1.92 ± 0.057
61 | LQLLPLQKAVRGHVLQF [SNF2] | 1.22 ± 0.029
62 | LQMDYKDDMKVDDAIEL [PRE9] | 3.21 ± 0.14
63 | LQNDLIHKIQNDNNLKK [RPN5] | 2.96 ± 0.081
64 | LQNIVMDCTKEEEATMT [YIL149C/MLP2] | 3.4 ± 0.12
65 | LQNKPDAKKARFWSFMK [SIR4] | 2.55 ± 0.098
66 | LQNNINNSNNNNIIRIQ [SNF11] | 2.94 ± 0.089
67 | LQQKHELDTASRILKAQ [YGR119C/NUP57] | 2.73 ± 0.045
68 | LQRHSGISSTLVSANND [YLR018C/POM34] | 2.7 ± 0.052
69 | LQVDVDIAGQRDDALVV [RRP42] | 2.07 ± 0.17
70 | LQYGWKVERHIMDNDPV [RPO21] | 1.19 ± 0.069
71 | LRDIGECENEIKTKQMS [SMC2] | 3.05 ± 0.29
72 | LRDREDWGQALRLLLLL [YJR042W/NUP85] | 2.83 ± 0.066
73 | LRDRNFSATGNFGFGID [RPL11A] | 3.23 ± 0.069
74 | LRDSLADKIVDEFPELK [NUT2] | 2.76 ± 0.098
75 | LRGCKFLQSVDITGIRD [GRR1] | 1.72 ± 0.034

Row | Sequence | protein stability index
76 | LRIGRIEDVTPVPSDST [RPS14B] | 2.91 ± 0.037
77 | LRLCLDIVPYFLKHNGE [RPN1] | 2.3 ± 0.063
78 | LRLTRINSGTFVKVTKA [RPL7A] | 1.89 ± 0.1
79 | LRQFKTCPVEVIKRLEA [BRR2] | 2.94 ± 0.18
80 | LRQLLKERYTVEDELTE [RRI1] | 3.04 ± 0.097
81 | LRRTTQRVFDETEQEYS [YDL116W/NUP84] | 3.21 ± 0.064
82 | LRTEYGWDSLASRNVWS [SNU114] | 2.85 ± 0.099
83 | LRYVKQIEGPFLIIVPK [ISW2] | 2.15 ± 0.081
84 | LSALDHYERTQTKENKR [RPN8] | 2.91 ± 0.077
85 | LSEDKKKLDYVLALKVE [RPS9A] | 1.31 ± 0.17
86 | LSIPGKSTPEGTLWAHV [SNU114] | 2.91 ± 0.065
87 | LSKEVPFSYLIDETMMD [SRB5] | 2.03 ± 0.12
88 | LSLEEVEGHLFEIIDEA [FAS1] | 3.01 ± 0.11
89 | LSLNLGDYGSAKCNSLL [POP5] | 2.47 ± 0.061
90 | LSNCLANARDFGEWAGM [BRR2] | 2.35 ± 0.089
91 | LSRGYTCPGLSLTDVAF [ECM29] | 3.24 ± 0.12
92 | LSRLQKSGRINGFHGRL [SMC4] | 3.26 ± 0.15
93 | LSSLKSFAIYSSTIDAP [SRB8] | 1.71 ± 0.038
94 | LSSNITFDGKPTATPSP [YMR153W/NUP53] | 2.91 ± 0.057
95 | LSSVALRSDFYILANHY [YJL039C/NUP192] | 2.06 ± 0.15
96 | LSTLEPSTSITLAERQQ [RPN9] | 2.9 ± 0.055
97 | LSWCPSRFSPEKLAVSA [YGL100W/SEH1] | 2.48 ± 0.078
98 | LTIGVKFFMKHGLILEL [SRB5] | 1.71 ± 0.05
99 | LTITKAAGANVDNVWAD [RPP1B] | 2.63 ± 0.089
100 | LTKAAIVQIDATPFRQW [RPS8A] | 2.132 ± 0.016
